From patent publication US20230192902A1 (published 2023)
Like-named read-outs stand apart in the source and are kept apart here.

T1: human ABCG2 (UniProt Q9UNQ0 1-655)
T1 chain: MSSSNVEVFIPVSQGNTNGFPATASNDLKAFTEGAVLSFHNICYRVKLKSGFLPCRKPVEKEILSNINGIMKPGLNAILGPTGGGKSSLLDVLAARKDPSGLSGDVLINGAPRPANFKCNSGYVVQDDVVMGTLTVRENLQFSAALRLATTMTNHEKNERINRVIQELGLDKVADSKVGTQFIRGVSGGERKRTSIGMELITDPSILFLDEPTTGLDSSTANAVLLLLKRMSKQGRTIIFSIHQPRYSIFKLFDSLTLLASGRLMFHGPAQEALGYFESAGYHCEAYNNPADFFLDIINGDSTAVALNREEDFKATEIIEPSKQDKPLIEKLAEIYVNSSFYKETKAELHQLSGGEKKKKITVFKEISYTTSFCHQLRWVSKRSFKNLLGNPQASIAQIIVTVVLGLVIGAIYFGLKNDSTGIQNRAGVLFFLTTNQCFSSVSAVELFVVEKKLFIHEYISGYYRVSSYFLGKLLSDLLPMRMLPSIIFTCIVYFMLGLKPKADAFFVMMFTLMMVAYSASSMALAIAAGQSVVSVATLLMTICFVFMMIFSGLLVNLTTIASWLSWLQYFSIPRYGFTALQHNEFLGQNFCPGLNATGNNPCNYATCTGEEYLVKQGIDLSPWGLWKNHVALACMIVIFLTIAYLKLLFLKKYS


How the values were obtained:
human ABCG2 [1] = biological target: T1, human ABCG2; assay: flow cytometry cell binding; 293T-G2OX cells
human PD-L1 = human PD-L1 (human, UniProt Q9NZQ7 19-290); assay: flow cytometry cell binding; 293T-KT9OX cells
human ABCG2 [2] = biological target: T1, human ABCG2; assay: flow cytometry cell binding; 293T-G2OX cells
293T-G2KT9OX = assay: flow cytometry cell binding; cells expressing both ABCG2 and PD-L1

Sequence of human PD-L1 (Q9NZQ7 19-290): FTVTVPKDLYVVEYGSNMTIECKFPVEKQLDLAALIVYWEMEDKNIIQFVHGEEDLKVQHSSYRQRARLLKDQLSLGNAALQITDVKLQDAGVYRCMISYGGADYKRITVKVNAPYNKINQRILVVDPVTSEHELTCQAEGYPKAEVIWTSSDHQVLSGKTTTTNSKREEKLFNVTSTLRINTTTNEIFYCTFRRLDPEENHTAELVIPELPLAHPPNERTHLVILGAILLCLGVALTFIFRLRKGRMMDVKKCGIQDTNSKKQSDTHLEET

EC50 (human ABCG2 [1])	Binder	other results
1.5 nM	anti-ABCG2 antibody 5D3 (antibody, V domains shown) VH: QVQLQESGPGLVKPSQSLSLTCTVTGFSITSDYAWNWIRQFPGKKLEWMGYINFDGGTTYNPSLRGRISITRDTSKNQFFLQLRSVTPEDTATYYCATFYGAKGTLDYWGQGTSVTVSS VL: DIVLTQSPSSFSVSLGDRVTISCKASGYILNRLAWYQQKPGNAPRLLISGATSLETGFPSRFSGTGSGKDYTLSISSLQTEDVGTYYCQQYWSTPWTFGGGTKLEIR	
	5D3hVH-v1DD KT9KK 5D3hVL-v1 (bispecific antibody, V domains shown) VH 1: EVQLQESGPGLVKPSETLSLTCTVSGFSITSDYAWNWIRQPPGKGLEWMGYINFDGGTTYNPSLRGRITISRDTSKNQFSLKLSSVTAADTAVYYCATFYGAKGTLDYWGQGTLVTVSS VH 2: not shown VL: DIQLTQSPSSLSASVGDRVTITCKASGYILNRLAWYQQKPGKAPKLLISGATSLETGFPSRFSGSGSGKDYTLTISSLQPEDFATYYCQQYWSTPWTFGGGTKLEIK	EC50 (human PD-L1): 4.18 nM; EC50 (human ABCG2 [2]): 7.1 nM
	5D3hVHv1DD KT9KK 5D3hVKv1 (bispecific antibody, V domains shown) VH 1: EVQLQESGPGLVKPSETLSLTCTVSGFSITSDYAWNWIRQPPGKGLEWMGYINFDGGTTYNPSLRGRITISRDTSKNQFSLKLSSVTAADTAVYYCATFYGAKGTLDYWGQGTLVTVSS VH 2: not shown VL: DIQLTQSPSSLSASVGDRVTITCKASGYILNRLAWYQQKPGKAPKLLISGATSLETGFPSRFSGSGSGKDYTLTISSLQPEDFATYYCQQYWSTPWTFGGGTKLEIK	EC50 (293T-G2KT9OX): 10.8 nM
2.2 nM	5D3hVHv2 5D3hVKv1 (antibody, V domains shown) VH: EVQLQESGPGLVKPSETLSLTCTVSGFSITSDYAWNWIRQPPGKGLEWIGYINFDGGTTYNPSLRGRVTISRDTSKNQFSLKLSSVTAADTAVYYCATFYGAKGTLDYWGQGTLVTVSS VL: DIQLTQSPSSLSASVGDRVTITCKASGYILNRLAWYQQKPGKAPKLLISGATSLETGFPSRFSGSGSGKDYTLTISSLQPEDFATYYCQQYWSTPWTFGGGTKLEIK	
2.2 nM	5D3hVHv1 5D3hVKv1 (antibody, V domains shown) VH: EVQLQESGPGLVKPSETLSLTCTVSGFSITSDYAWNWIRQPPGKGLEWMGYINFDGGTTYNPSLRGRITISRDTSKNQFSLKLSSVTAADTAVYYCATFYGAKGTLDYWGQGTLVTVSS VL: DIQLTQSPSSLSASVGDRVTITCKASGYILNRLAWYQQKPGKAPKLLISGATSLETGFPSRFSGSGSGKDYTLTISSLQPEDFATYYCQQYWSTPWTFGGGTKLEIK	
